Measurements taken from patent publication US20030036699A1, “Methods and systems which use annexin for bioprofiling body lumen” (IMETRx, Inc., priority 2001, published 2003).
Several values for one entry are separate records, joined by “and”; a condition that tells them apart may be missing. Equal values may be shown once.

B1: annexin V-^99mTc (protein, UniProt P08758 2-320, looked up)
Annexin A5: AQVLRGTVTDFPGFDERADAETLRKAMKGLGTDEESILTLLTSRSNAQRQEISAAFKTLFGRDLLDDLKSELTGKFEKLIVALMKPSRLYDAYELKHALKGAGTNEKVLTEIIASRTPEELRAIKQVYEEEYGSSLEDDVVGDTSGYYQRMLVVLLQANRDPDAGIDEAQVEQDAQALFQAGELKWGTDEEKFITIFGTRSVSHLRKVFDKYMTISGFQIEETIDRETSGNLEQLLLAVVKSIRSIPAYLAETLYYAMKGAGTDDHTLIRVMVSRSEIDLFNIRKEFRKNFATSLYSMIKGDTSGDYKKALLLLCGEDD
modifications: technetium-99m label
notes: Annexin V, a human protein (36 kD) of 319 amino acids, radiolabeled with technetium-99m as tracer

System: injured iliac vessel (arterial lesions)
Experiment: Tracer uptake by autoradiography of harvested aorta/iliac in balloon-injured, cholesterol-fed rabbits
Format: in vivo, rabbit
Conditions: for Figure of Merit (FOM): FOM=3(AUR)(PUR)(PBR); for Peak Uptake Ratio (PUR): peak lesion uptake vs uninjured zone, autoradiograph after single IV tracer dose; for Average Uptake Ratio (AUR): ratio of uptake in injured vs uninjured iliac vessel, autoradiograph about 2.5 h after single IV tracer dose
Protocol: Twenty-one adult male rabbits (weighing 3-4 kg at the time of tracer administration) were each were fed a high cholesterol, high fat diet for one week. Following one week of feeding, the rabbits were heparinized, anesthetized with ketamine HCI (25 mg/kg, IM) and medetomidine (0.5 mg/kg, IM), and underwent a left carotid arteriotomy. A 3-4F Fogarty catheter was advanced through the arteriotomy under fluoroscopic guidance into the right iliac artery. The Fogarty balloon was inflated with 0.4-0.75 ml of contrast media (to assist with localization by fluoroscopy) and withdrawn to the level of diaphragm. The balloon was deflated, the catheter returned to the distal iliac under fluoroscopic guidance, and the process repeated. There were six repetitions of the procedure. The neck incision was closed, and the animals received Baytril (5 mg IM) for 3 days following surgery to minimize infection. The animals were allowed to recover for four additional weeks while the high fat/high cholesterol diet was continued. The rabbits were divided into seven groups of […] each. On the day of study, a blood sample was drawn to measure lipids (cholesterol), and two groups of three animals received a single tracer dose intravenously via a marginal ear vein. The first group of three rabbits received annexin V-^99mTc.
Two hours after the radiopharmaceutical was administered, the animals were injected with Evans blue to identify the areas of injury an re-endothelialized aorta and iliac vessel. Thirty minutes later, the animals were anesthetized with sodium pentothal (35 mg/kg, IV) and, a thoracotomy and a midline laporotomy incision were performed. The left ventricle was identified, a trocar placed in the chamber, and a cannula placed in the abdominal aorta. The rabbit was partially exsanguinated, followed by infusion of 100 mL lactated Ringer's solution, and subsequently perfused with 0.4% paraformaldehyde (PFA) for about 5 min at about 100 mmHg pressure.
Following euthanasia, the aorta was harvested, photographed (SONY Mavica) and autoradiographed (Molecular Dynamics). An aliquot of blood and an aliquot of the injected dose were included on the plate to permit quantification. The autoradiographs were compared to the Evans Blue stained specimen to determine where the tracer had localized with reference to the injury. A ratio between uptake in the injured and uninjured iliac vessel was determined (average uptake ratio) using analysis option of ‘Image Quest^1.’ Additional ratios were created using the average counts in regions of interest placed over the area with peak uptake on the autoradiograph with each agent, and a ratio of peak uptake to the activity in an aliquot blood were determined.
To simplify the process of integrating the information, a Figure of Merit was calculated, using the formula: […]

Molecule | Figure of Merit (FOM) | activity in injured iliac vessel relative to uninjured site (animals 1 and 3) [fold] | Peak Uptake Ratio (PUR) | Average Uptake Ratio (AUR) | localization of tracer on the autoradiograph relative to lesion sites (autoradiograph compared with Evans Blue stained specimen) | Peak to Blood Ratio (PBR) (peak lesion uptake vs activity in an aliquot of blood)
albumin-^125I [reference compound] | 14 | 3 | 5.1 and 5.2 | 3.0 | – | –
B1 | 1701 | – | 15 | 8.4 | striking correlation between lesion sites and localization of annexin | 4.5
